These results are taken from patent US12502562B2, “Human iPSC-derived brain organoids and uses thereof” (CITY OF HOPE, priority 2020, dated 2025).

Series [1] concerns hiPSC-derived brain organoids. Put plainly: MEA recording of hiPSC-derived brain organoids with neuronal blockers. The note with it: uninfected brain organoids, blocker 10 μM applied immediately before recording. The format is cell-based, human. The method, then: (§1) Microelectrode Arrays (MEA). Brain organoids at day 45 of differentiation were partially dissociated and seeded onto 12-well transparent MEA plates at three brain organoids per well. Brain organoids were cultured in BrainPhys medium, including 1×B27, 1×N2, 20 ng/ml GDNF, 20 ng/ml BDNF, 500 μg/ml Dibutyryl-cAMP, 1× Glutamax, and 1× NEAA. MEA recordings were performed at 37° C. in a Maestro MEA system with AxIS software using a bandwidth with a filter for 10 Hz to 2.5 kHz cutoff frequencies. Spike detection was performed using an adaptive threshold set to 5.5 times of the standard deviation of the estimated noise on each electrode. For recordings, following a 5-minute resting time in the Maestro instrument, each plate was recorded for 10 minutes to calculate the spike rate per well. When a recording of 5 spikes over the length of 1 minute (5 spikes per minute) was obtained, the electrode was considered active. Individual electrode bursts were identified using an adaptive Poisson surprise algorithm, while network bursts were identified for each well using a non-adaptive algorithm requiring a minimum of 10 spikes with a maximum inter-spike interval of 100 ms. Multielectrode data analysis was performed using the Axion Biosystems NeuralMetrics Tool. Synchrony index was calculated by NeuralMetric Tool with synchrony window set as 20 ms. […]

For series [2], the system named is HCMV TB40/E. Nature of the series: Receptor-specific siRNA treatment of brain organoids followed by TB40/E infection. The note with it: for GFP fluorescence of siRNA-treated infected brain organoids / growth kinetics of siRNA-treated infected brain organoids: siRNA for 4 days, then GFP-labeled TB40/E, up to 20 days post infection, compared to control siRNA; for susceptibility of brain organoids to TB40/E: siRNA-mediated knockdown, summary statement. The format is cell-based, Human cytomegalovirus. The method, then: (§2) HCMV infection of brain organoids. Brain organoids at day 45 of differentiation were seeded in 24-well plates and exposed to 5×10^5 pfu/ml of HCMV virus for 24 hours. Following infection, 1 ml medium was replaced, and each organoid was placed in a single well for the duration of the experiment. At different time points post infection, each organoid was evaluated for GFP fluorescence intensity and organoid size in diameter using the same microscopy setting during each experiment.
RNA interference. Oligonucleotides for siRNA-mediated RNA interference were synthesized by […]. For RNA interference in brain organoids, four brain organoids with similar size were seeded in ultralow 24-well plates (one organoid per well) and transfected with siRNA using siLentFect. After 96 hours incubation, each organoid was infected with TB40/E at 5×10^5 pfu/ml. Medium was changed the following day. Brain organoids were cultured for 20 days on shaker with continuous medium change every 3-4 days.

In series [3] the test system is HCMV TB40/E. Put plainly: HCMV TB40/E infection of hiPSC-derived brain organoids in the presence of NAbs (GFP fluorescence intensity, organoid size). Format: cell-based, Human cytomegalovirus. The note with it: for GFP fluorescence intensity of infected brain organoids / brain organoid growth kinetics (relative organoid size): GFP-labeled TB40/E, organoids at day 45 of differentiation, NAb 3.2-2000 ng/ml, up to 30 days post infection; for GFP fluorescence intensity of infected brain organoids / brain organoid growth kinetics (relative organoid size) / brain organoid size: compared to IgG control; for brain organoid size: TB40/E, 80-2000 ng/ml antibody; for prevention of HCMV infection of human brain organoids: summary statement. The method, then:
as §2
(§3) Brain organoid treatment with NAbs. 1B2 and 62-11 NAbs at final concentrations ranging from 3.2 ng/ml to 4000 ng/ml were incubated with 5×10^5 pfu/ml of HCMV for 1 hour at 37° C. and then transferred to brain organoid-containing wells. Normal mouse IgG was used as a control at the concentration of 2000 ng/ml. For proliferation assay, brain organoids were incubated with 10 μM BrdU for 2 hours and fixed in 4% paraformaldehyde (PFA) for 1 hour, followed by immunostaining.
(§4) Images were obtained with a Carl Zeiss LSM700 confocal microscope or Nikon Eclipse TE-2000-S microscope. Cortical layer thicknesses, brain organoid size and GFP fluorescence intensity of brain organoids were measured by Image J. For measuring the layer thickness, small rectangles were drawn to ensure two opposite sides to align with both layer marker dashed lines.

Series [4] relates to HCMV TB40/E. Nature of the series: MEA recording of neural network activity in TB40/E-infected brain organoids. Format: cell-based, Human cytomegalovirus. The note with it: 4000 ng/ml NAb, MEA recording 2 weeks post infection. The method, then: as §1
The next series relates to HCMV strain TR. Nature of the series: HCMV TR infection of hiPSC-derived brain organoids in the presence of NAb. Format: cell-based, Human cytomegalovirus. As to conditions: GFP-labeled TR, IMR90 iPSC-derived organoids at day 45 of differentiation. The method, then: as §2, §3, §4
For series [5], the system named is HCMV infection of fibroblasts. The note with it: cited from earlier work.
Series [6] has as its system HCMV TB40/E. Put plainly: Cortical layer structure of TB40/E-infected brain organoids by layer marker immunostaining. The note with it: NAb 2000 ng/ml, compared to IgG control. Format: cell-based, Human cytomegalovirus. The method, then: as §3
Immunostaining. Cells on coverslip were fixed with 4% PFA in PBS for 15 minutes at room temperature. Brain organoids were fixed with 4% PFA for 1 hour and submerged in 30% sucrose overnight. The samples were embedded in OCT and sectioned at a thickness of 14 or 20 μm using Leica CM3050S. Cells or brain organoid sections were permeabilized and blocked with blocking solution (1×PBS containing 0.1% Triton X-100 and 5% normal donkey serum) for 1 hour. […]
as §4

In series [7] the test system is HCMV infection of epithelial cells. The note with it: cited from earlier work.

`N#Cc1cc2nc([O-])c([O-])nc2cc1[N+](=O)[O-].[Na+].[Na+]` [CNQX, CNQX disodium salt]: the “spontaneous, synchronized burst and spikes of the neuronal network (MEA)” value in series [1] is “could be quenched”.

Regarding “EGFR-specific siRNA: siRNA specific for EGFR, sense SEQ ID NO: 1, antisense SEQ ID NO: 2 (sense GACGGCGUCCGCAAGUGUA; antisense UACACUUGCGGACGCCGUCUU; listed as RNA, chemistry not given here)”, in the series with HCMV TB40/E [2], the “GFP fluorescence of siRNA-treated infected brain organoids” value was “no or very low GFP fluorescence”, the “growth kinetics of siRNA-treated infected brain organoids” value is “substantially higher growth kinetics” and the “susceptibility of brain organoids to TB40/E” value is “completely abrogated”.

For “ITGA3-specific siRNA: siRNA specific for integrin α3, sense SEQ ID NO: 5, antisense SEQ ID NO: 6 (sense GCUACAUGAUUCAGCGCAA; antisense UUGCGCUGAAUCAUGUAGCUG; listed as RNA, chemistry not given here)”, in the series on HCMV TB40/E [2], the “GFP fluorescence of siRNA-treated infected brain organoids” value is on record as “similar” and the “growth kinetics of siRNA-treated infected brain organoids” value is recorded as “similar”.

Consider “ITGA5-specific siRNA: siRNA specific for integrin α5 (Dharmacon), sense SEQ ID NO: 7, antisense SEQ ID NO: 8 (sense GGGAACCUCACUUACGGCU; antisense AGCCGUAAGUGAGGUUCCCUU; listed as RNA, chemistry not given here) [reference compound]”, for which, in the series with HCMV TB40/E [2], the “GFP fluorescence of siRNA-treated infected brain organoids” value is reported as “similar” and the “growth kinetics of siRNA-treated infected brain organoids” value is “similar”.

As to “PDGFRα-specific siRNA: siRNA specific for PDGFRα, sense SEQ ID NO: 3, antisense SEQ ID NO: 4 (sense CCACCUUCAUCAAGAGAGA; antisense UCUCUCUUGAUGAAGGUGGAA; listed as RNA, chemistry not given here)”, in the series on HCMV TB40/E [2], the “GFP fluorescence of siRNA-treated infected brain organoids” value is on record as “no or very low GFP fluorescence”, the “growth kinetics of siRNA-treated infected brain organoids” value is recorded as “substantially higher growth kinetics” and the “susceptibility of brain organoids to TB40/E” value is recorded as “completely abrogated”.

B1: 1B2: Mouse monoclonal anti-CMV PC neutralizing antibody that targets the UL128/130/131A subunits of the PC (antibody, V domains shown)
VH: EVQLVESGGVLVKPGGSLKLSCAASGFTFSDYYMYWVRQTPEKRLEWVATISDDGNYTNYPDSVKGRFTISRDNAKNNLYLQMSSLKSEDTAMYYCARGWLLPVFAYWGQGTLVTVSA
VL: DIVLTQSPATLSVTPGDSVSLSCRASQSIGNNLHWYQQKSHESPRLLIKYTSQSISGIPSRFSGSGSGTDFTLNINSVETEDFGVYFCQQSNRWPWTFGGGTKLEIK
As for B1, in the series with HCMV TB40/E [3], the “GFP fluorescence intensity of infected brain organoids” value is recorded as “substantially reduced GFP fluorescence intensity”, the “brain organoid growth kinetics (relative organoid size)” value was “markedly increased growth kinetics in a dose-dependent manner”, the brain organoid size entry was “substantially larger” and the “prevention of HCMV infection of human brain organoids” value is listed as “can potently prevent”. In addition, in the series on HCMV TB40/E [4], the “neural network activity (MEA profile)” value was “largely prevented neural network impairment”. Moreover, the “infection of brain organoids by TR and its effect on brain organoid growth” value with HCMV strain TR is given as “could be prevented”. For the same molecule, the “prevention of HCMV infection of fibroblasts” value in series [5] is listed as “unable to prevent”. The “thickness of the TBR2+SVZ and the CTIP2+CP layers” value in the series on HCMV TB40/E [6] is reported as “much thicker”. Moreover, in series [7], the “inhibition of HCMV infection of epithelial cells” value is on record as “exceptionally high potency”.

B2: 62-11: Mouse monoclonal gH-specific HCMV neutralizing antibody raised against the envelope PC by vaccination (antibody, V domains shown)
VH: QVQLQQPGAELVRPGASVKLSCKASGYTFTSYWMNWVKQRPGQGLEWIGMIDPSDSETHYNQMFKDKATLTVDKSSSTAYMQLSSLTSEDSAVYYCSNGYSSFAYWGQGTLVTVSV
VL: DVQMTQTTSSLSASLGDRVTISCSASQGISNYLNWYQQKPDGTVKLLIYDTSSLHSGVPSRFSGSGSGTDYSLTISNLEPEDIATYYCQQYSKLPYTFGGGTKLEIK
As for B2, in the series on HCMV TB40/E [3], the “GFP fluorescence intensity of infected brain organoids” value is “substantially reduced GFP fluorescence intensity”, the “brain organoid growth kinetics (relative organoid size)” value is on record as “markedly increased growth kinetics in a dose-dependent manner”, the brain organoid size entry is “substantially larger” and the “prevention of HCMV infection of human brain organoids” value is recorded as “can potently prevent”. Further, the “prevention of HCMV infection of fibroblasts” value in series [5] was “can potently interfere”. Besides, the “inhibition of HCMV infection of epithelial cells” value in series [7] is “can potently interfere”.
